Measurements reported in the supplement of paper PMC10724198.
± gives the standard deviation of the averaged measurements.

What follows are sequences tested on Saccharomyces cerevisiae (assay: protein stability index of tFT-peptide fusion in wild type (PSI (0-1 scale)); higher = more stable (slower turnover)). Conditions: genetic background: wild type.
Method: (§1)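 MPS profiling in S. cerevisiae of two library types built from selected 12-aa C-degron peptides (IN1, IN2, LN1, LN3, VN2, R1-R5, W1-W3, Atg1 and Rpa12 C-termini): saturation mutagenesis libraries and C-terminal +1 capping libraries (13 aa). Each peptide is fused to the C-terminus of a sfGFP-mCherry timer, after a GGGS linker. Cells are FACS-sorted into 8 mCherry/sfGFP bins and sequenced. PSI runs from 0 (unstable) to 1 (stable), measured once in wild type and in the das1Δ or doa10Δ background.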
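For protein stability index of tFT-peptide fusion (C-terminal peptide) in this document: PSI is a weighted mean of sequencing reads over stability bins, variants kept only with over 10 reads, mCherry proximal and sfGFP distal, peptide attached via GGGS linker.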
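For protein stability index of tFT-peptide fusion in deletion strain of DAS1 in this document: PSI is a weighted mean of each variant's read distribution over the sorted stability bins, computed only for variants having over 10 reads in total.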
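For protein stability index of tFT-peptide fusion in deletion strain of DOA10 in this document: PSI per variant is the weighted mean of its sequencing read distribution over the sorted stability bins, counting only variants with over 10 reads summed across bins.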
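For protein stability index of tFT-peptide fusion in wild type in this document: PSI derived as read-weighted mean over the 8 sorting bins, only variants exceeding 10 total reads kept, mCherry placed adjacent to the peptide and sfGFP distal.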

Point of comparison: RETRLDAIYFRI, protein stability index 0.545. Against it:
- ACTLPMCPLLLR — lower, 0.318
- AIKLPMCPLLLR — lower, 0.276
- AINLPMCPLLLR — lower, 0.243
- AITAPMCPLLLR — lower, 0.472
- AITDPMCPLLLR — higher, 0.603
- AITEPMCPLLLR — higher, 0.593
- AITLPMCDLLLR — higher, 0.639
- AITLPMCELLLR — lower, 0.511
- AITLPMCFLLLR — lower, 0.0902
- AITLPMCKLLLR — lower, 0.392
- AITLPMCPKLLR — higher, 0.643
- AITLPMCPLHLR — higher, 0.566
- AITLPMCPLILR — lower, 0.238
- AITLPMCPLKLR — higher, 0.549
- AITLPMCPLLLD — higher, 0.608
- AITLPMCPLLLK — lower, 0.269
- AITLPMCPLLLM — lower, 0.505
- AITLPMCPLLRR — higher, 0.62
- AITLPMCPLLSR — higher, 0.573
- AITLPMCPLLTR — higher, 0.561
- AITLPMCPLLYR — lower, 0.529
- AITLPMCPLQLR — higher, 0.608
- AITLPMCPLVLR — lower, 0.233
- AITLPMCPMLLR — lower, 0.392
- AITLPMLPLLLR — lower, 0.125
- AITLPMQPLLLR — lower, 0.238
- AITLPMTPLLLR — lower, 0.229
- AITLPRCPLLLR — lower, 0.265
- AIYLPMCPLLLR — lower, 0.268
- AYTLPMCPLLLR — lower, 0.171
- CITLPMCPLLLR — lower, 0.118
- CIVSLPILLFFR — lower, 0.0595
- CLCSLPILLFFR — lower, 0.106
- CLFSLPILLFFR — lower, 0.0583
- CLQSLPILLFFR — lower, 0.0983
- CLVCLPILLFFR — lower, 0.104
- CLVSLHILLFFR — lower, 0.144
- CLVSLPCLLFFR — lower, 0.064
- CLVSLPILGFFR — higher, 0.625
- CLVSLPILIFFR — lower, 0.0649
- CLVSLPILLAFR — lower, 0.115
- CLVSLPILLDFR — higher, 0.553
- CLVSLPILLFFD — lower, 0.433
- CLVSLPILLFFL — lower, 0.293
- CLVSLPILLFFQ — lower, 0.313
- CLVSLPILLFFRK — lower, 0.115
- CLVSLPILLFFRQ — lower, 0.0783
- CLVSLPILLFFRV — lower, 0.0545
- CLVSLPILLFFRW — lower, 0.0557
- CLVSLPILLFFV — lower, 0.206
- CLVSLPILLFHR — lower, 0.481
- CLVSLPILLFIR — lower, 0.0496
- CLVSLPILLFKR — lower, 0.413
- CLVSLPILLFWR — lower, 0.0447
- CLVSLPILLFYR — lower, 0.116
- CLVSLPILSFFR — higher, 0.581
- CLVSLPISLFFR — lower, 0.101
- CLVSLPIYLFFR — lower, 0.0617
- CLVSLPPLLFFR — lower, 0.0903
- CLVSLPQLLFFR — lower, 0.0822
- CLVSLSILLFFR — lower, 0.183
- CLVSVPILLFFR — lower, 0.064
- CLVSWPILLFFR — lower, 0.0554
- CLWSLPILLFFR — lower, 0.0887
- CMVSLPILLFFR — lower, 0.0703
- GLAMCSVGCWFR — lower, 0.268
- GLYCCSVGCWFR — lower, 0.342
- GLYMCIVGCWFR — lower, 0.214
- GLYMCSLGCWFR — lower, 0.283
- GLYMCSMGCWFR — lower, 0.321
- GLYMCSVACWFR — lower, 0.228
- GLYMCSVGCAFR — higher, 0.614
- GLYMCSVGCEFR — higher, 0.594
- GLYMCSVGCQFR — higher, 0.618
- GLYMCSVGCRFR — higher, 0.625
- GLYMCSVGCWFE — lower, 0.474
- GLYMCSVGCWFG — lower, 0.456
- GLYMCSVGCWFP — higher, 0.607
- GLYMCSVGCWFRG — lower, 0.334
- GLYMCSVGCWFRP — lower, 0.287
- GLYMCSVGCWFRQ — lower, 0.113
- GLYMCSVGCWFRS — lower, 0.267
- GLYMCSVGCWFRW — lower, 0.231
- GLYMCSVGCWGR — higher, 0.625
- GLYMCSVGCWNR — higher, 0.618
- GLYMCSVGCYFR — lower, 0.425
- GLYMCSVGDWFR — higher, 0.677
- GLYMCSVGIWFR — lower, 0.165
- GLYMCSVGMWFR — lower, 0.307
- GLYMCSVKCWFR — lower, 0.415
- GLYMCSYGCWFR — lower, 0.299
- GSYMCSVGCWFR — lower, 0.411
- ILVSLPILLFFR — lower, 0.111
- KLVSLPILLFFR — lower, 0.0816
- PSLAASFWRVVG — lower, 0.146
- RKTRLDAIYFRI — lower, 0.49
- RSARVLLPLYFR — lower, 0.336
- RSLRPLLPLYFR — lower, 0.316
- RSLRVLCPLYFR — lower, 0.305
- RSLRVLFPLYFR — lower, 0.196
- RSLRVLKPLYFR — lower, 0.304
- RSLRVLLFLYFR — lower, 0.21
- RSLRVLLPLAFR — lower, 0.37
- VRGQVGGWRLVG — lower, 0.147
- VRRAVGGWRLVG — lower, 0.145

Each sequence was assayed on Saccharomyces cerevisiae (assay: protein stability index of tFT-peptide fusion (C-terminal peptide) (PSI (0-1 scale)); higher = more stable (slower turnover)). Conditions: genetic background: cdc34-1; temperature: 37 C.
Method: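 MPS profiling in S. cerevisiae of the tFT-X12 degron library: putative degron peptides plus stable controls, 12 aa, fused to the C-terminus of a sfGFP-mCherry timer. Cells are FACS-sorted into 8 mCherry/sfGFP bins and deep-sequenced. PSI runs from 0 (unstable) to 1 (stable). Backgrounds are wild type, das1Δ and doa10Δ at 30 °C, and wild type, das1Δ, cdc34-1 and cdc53-1 at 37 °C; 2-3 technical replicates each.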

With PSLAASFWRVVG the protein stability index was 0.595 ± 0.1.

Same assay, conditions: genetic background: cdc53-1; temperature: 37 C

With PSLAASFWRVVG the protein stability index was 0.749 ± 0.016.

Same assay, conditions: genetic background: das1 deletion; temperature: 30 C

For PSLAASFWRVVG, the protein stability index was 0.694 ± 0.051.

Same assay, conditions: genetic background: das1 deletion; temperature: 37 C

PSLAASFWRVVG gave a protein stability index of 0.7397 ± 0.0053.

Same assay, conditions: genetic background: doa10 deletion; temperature: 30 C

Sequence PSLAASFWRVVG has a protein stability index of 0.102 ± 0.031.

Same assay, conditions: genetic background: wild type; temperature: 30 C

PSLAASFWRVVG was tested, and the protein stability index was 0.109 ± 0.037.

Same assay, conditions: genetic background: wild type; temperature: 37 C

For PSLAASFWRVVG, the protein stability index was 0.243 ± 0.0024.

What follows are sequences tested on Saccharomyces cerevisiae in the same assay as above. Conditions: genetic background: wild type; temperature: 30 C.

For PSLAASFWRVVG, the protein stability index was 0.197 ± 0.013.

The sequences below were run on Saccharomyces cerevisiae (assay: protein stability index of tFT-peptide fusion in deletion strain of DAS1 (PSI (0-1 scale)); higher = more stable (slower turnover)). Conditions: not given.
Method: as §1

Point of comparison: PSLAASFWRVVG, protein stability index 0.686. Against it:
- VRGQVGGWRLVG — lower, 0.677
- VRRAVGGWRLVG — higher, 0.695

The sequences below were run on Saccharomyces cerevisiae (assay: protein stability index of tFT-peptide fusion in deletion strain of DOA10 (PSI (0-1 scale)); higher = more stable (slower turnover)). Conditions: not given.
Method: as §1

Point of comparison: CLVSLPCLLFFR, protein stability index 0.639. Against it:
- ACTLPMCPLLLR — higher, 0.678
- AIKLPMCPLLLR — higher, 0.652
- AINLPMCPLLLR — higher, 0.656
- AITAPMCPLLLR — higher, 0.66
- AITDPMCPLLLR — higher, 0.693
- AITEPMCPLLLR — higher, 0.648
- AITLPMCDLLLR — higher, 0.675
- AITLPMCELLLR — higher, 0.676
- AITLPMCFLLLR — lower, 0.62
- AITLPMCKLLLR — higher, 0.663
- AITLPMCPKLLR — higher, 0.671
- AITLPMCPLHLR — higher, 0.68
- AITLPMCPLILR — higher, 0.656
- AITLPMCPLKLR — higher, 0.668
- AITLPMCPLLLD — higher, 0.684
- AITLPMCPLLLK — higher, 0.653
- AITLPMCPLLLM — lower, 0.545
- AITLPMCPLLRR — higher, 0.717
- AITLPMCPLLSR — lower, 0.594
- AITLPMCPLLTR — lower, 0.606
- AITLPMCPLLYR — higher, 0.652
- AITLPMCPLQLR — higher, 0.68
- AITLPMCPLVLR — higher, 0.646
- AITLPMCPMLLR — higher, 0.661
- AITLPMLPLLLR — lower, 0.633
- AITLPMQPLLLR — the same, 0.639
- AITLPMTPLLLR — higher, 0.644
- AITLPRCPLLLR — higher, 0.662
- AIYLPMCPLLLR — lower, 0.617
- AYTLPMCPLLLR — higher, 0.657
- CITLPMCPLLLR — lower, 0.635
- CIVSLPILLFFR — lower, 0.566
- CLCSLPILLFFR — lower, 0.615
- CLFSLPILLFFR — lower, 0.581
- CLQSLPILLFFR — lower, 0.631
- CLVCLPILLFFR — lower, 0.494
- CLVSLHILLFFR — lower, 0.292
- CLVSLPILGFFR — higher, 0.661
- CLVSLPILIFFR — lower, 0.53
- CLVSLPILLAFR — lower, 0.594
- CLVSLPILLDFR — higher, 0.643
- CLVSLPILLFFD — lower, 0.583
- CLVSLPILLFFL — lower, 0.45
- CLVSLPILLFFQ — lower, 0.53
- CLVSLPILLFFRK — lower, 0.57
- CLVSLPILLFFRQ — lower, 0.362
- CLVSLPILLFFRV — lower, 0.413
- CLVSLPILLFFRW — lower, 0.473
- CLVSLPILLFFV — lower, 0.385
- CLVSLPILLFHR — lower, 0.637
- CLVSLPILLFIR — lower, 0.46
- CLVSLPILLFKR — higher, 0.665
- CLVSLPILLFWR — lower, 0.638
- CLVSLPILLFYR — lower, 0.585
- CLVSLPILSFFR — higher, 0.658
- CLVSLPISLFFR — higher, 0.656
- CLVSLPIYLFFR — lower, 0.607
- CLVSLPPLLFFR — higher, 0.661
- CLVSLPQLLFFR — higher, 0.655
- CLVSLSILLFFR — lower, 0.286
- CLVSVPILLFFR — lower, 0.565
- CLVSWPILLFFR — lower, 0.595
- CLWSLPILLFFR — lower, 0.594
- CMVSLPILLFFR — lower, 0.584
- GLAMCSVGCWFR — higher, 0.661
- GLYCCSVGCWFR — higher, 0.658
- GLYMCIVGCWFR — lower, 0.364
- GLYMCSLGCWFR — higher, 0.658
- GLYMCSMGCWFR — higher, 0.676
- GLYMCSVACWFR — lower, 0.441
- GLYMCSVGCAFR — lower, 0.629
- GLYMCSVGCEFR — lower, 0.625
- GLYMCSVGCQFR — higher, 0.647
- GLYMCSVGCRFR — higher, 0.654
- GLYMCSVGCWFE — lower, 0.512
- GLYMCSVGCWFG — lower, 0.478
- GLYMCSVGCWFP — lower, 0.636
- GLYMCSVGCWFRG — lower, 0.635
- GLYMCSVGCWFRP — lower, 0.62
- GLYMCSVGCWFRQ — lower, 0.182
- GLYMCSVGCWFRS — lower, 0.521
- GLYMCSVGCWFRW — lower, 0.621
- GLYMCSVGCWGR — higher, 0.659
- GLYMCSVGCWNR — higher, 0.64
- GLYMCSVGCYFR — lower, 0.638
- GLYMCSVGDWFR — higher, 0.689
- GLYMCSVGIWFR — lower, 0.409
- GLYMCSVGMWFR — lower, 0.577
- GLYMCSVKCWFR — lower, 0.462
- GLYMCSYGCWFR — higher, 0.677
- GSYMCSVGCWFR — higher, 0.678
- ILVSLPILLFFR — lower, 0.545
- KLVSLPILLFFR — lower, 0.612
- RETRLDAIYFRI — higher, 0.667
- RKTRLDAIYFRI — lower, 0.628
- RSARVLLPLYFR — higher, 0.687
- RSLRPLLPLYFR — higher, 0.688
- RSLRVLCPLYFR — higher, 0.652
- RSLRVLFPLYFR — higher, 0.684
- RSLRVLKPLYFR — higher, 0.675
- RSLRVLLFLYFR — lower, 0.45
- RSLRVLLPLAFR — higher, 0.652
